Measurements taken from article PMC2998434, “Domain Swapping in Allosteric Modulation of DNA Specificity” (PLoS Biology, 2010).
Positions count from the first letter of the chain named.

Experiments:
SgrAI P27W = target: T1, SgrAI P27W (UniProt Q9F6L0 1-339, P27W); test: fluorescence polarization anisotropy; 10 mM Ca2+; FPA: 20 mM Tris-OAc pH 8.0, 50 mM KOAc, 10 mM Ca(OAc)2, 1 mM DTT, 10% glycerol, 4 C, 1 nM DNA; native PAGE: same binding buffer, 1 uM SgrAI, 30 min at 4 C, gel; settings: protein: recombinant, chain copies: 2
T1 sequence: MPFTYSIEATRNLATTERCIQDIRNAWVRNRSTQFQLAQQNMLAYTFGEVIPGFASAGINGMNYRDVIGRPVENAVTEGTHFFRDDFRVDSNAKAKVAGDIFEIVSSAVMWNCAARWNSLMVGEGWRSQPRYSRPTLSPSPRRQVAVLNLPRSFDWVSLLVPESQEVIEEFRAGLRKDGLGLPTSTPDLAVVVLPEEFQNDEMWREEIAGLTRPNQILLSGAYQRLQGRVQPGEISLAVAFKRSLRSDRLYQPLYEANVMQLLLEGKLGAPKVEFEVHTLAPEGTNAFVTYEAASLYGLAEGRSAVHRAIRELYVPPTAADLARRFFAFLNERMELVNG

SgrAI P27G = target: T2, SgrAI P27G (UniProt Q9F6L0 1-339, P27G); test: as above; settings: protein: recombinant, chain copies: 2
T2 sequence: T1 sequence with W27G

SgrAI wild type = target: T3, SgrAI wild type (UniProt Q9F6L0 1-339); test: X-ray crystal structure, 2.03 A; 50 mM CaCl2; two Ca2+ per active site; domain-swapped tetramer with two duplexes; FPA: 20 mM Tris-OAc pH 8.0, 50 mM KOAc, 10 mM Ca(OAc)2, 1 mM DTT, 10% glycerol, 4 C, 1 nM DNA; native PAGE: same binding buffer, 1 uM SgrAI, 30 min at 4 C, gel; settings: protein: recombinant; chain copies: 2; 5' overhang 1 nt (A) at each end; self-complementary, 2 strand copies
T3 sequence: T1 sequence with W27P

[1] = target: the molecule itself; test: crystal structure; SgrAI with self-complementary 17-mer cognate DNA (1:2 SgrAI dimer:DNA duplex) and Ca2+; 14% PEG 4K, 0.1 M imidazole pH 6.5, 0.15 M NaCl, 0.05 M CaCl2, 17°C; two DNA bound dimers form a domain swapped tetramer (N counts subunits)
[2] = label: 5' FLO on top strand only
[3] = label: 5' HEX on both strands (FPA), 5' 32P (native gel), blunt, self-complementary, 2 strand copies

B1: PCP (precleaved primary site DNA) (dsDNA)
DNA 1: GATGCGTGGGTCTTCACA
DNA 2: CCGGTGTGAAGACCCACGCATC
modifications: 5' phosphate at the cleavage site
Kd (SgrAI P27W; [2]): 9 ± 2 nM
Kd (SgrAI P27G; [2]): 5 ± 2 nM

B2: 17-2 cognate (crystal DNA) (dsDNA)
DNA 1: AAGTCCACCGGTGGACT
DNA 2: AAGTCCACCGGTGGACT
binding result (SgrAI wild type): binds

B3: 18-1 (primary site) (dsDNA)
DNA 1: AAGTCCACCGGTGGACTT
DNA 2: AAGTCCACCGGTGGACTT
Kd (SgrAI P27W; [3]): 4 ± 0.8 nM
Kd (SgrAI P27G; [3]): 17 ± 5 nM

B4: SgrAI restriction endonuclease, wild type (enzyme, Streptomyces griseus)
chain: PFTYSIEATRNLATTERCIQDIRNAPVRNRSTQFQLAQQNMLAYTFGEVIPGFASAGINGMNYRDVIGRPVENAVTEGTHFFRDDFRVDSNAKAKVAGDIFEIVSSAVMWNCAARWNSLMVGEGWRSQPRYSRPTLSPSPRRQVAVLNLPRSFDWVSLLVPESQEVIEEFRAGLRKDGLGLPTSTPDLAVVVLPEEFQNDEMWREEIAGLTRPNQILLSGAYQRLQGRVQPGEISLAVAFKRSLRSDRLYQPLYEANVMQLLLEGKLGAPKVEFEVHTLAPEGTNAFVTYEAASLYGLAEGRSAVHRAIRELYVPPTAADLARRFFAFLNERMELVNG
notes: the structure legends name residues 1-24 (swapping domain), 25-30 (hinge loop) and 31-339; residues 1-339 are named for the structure; also called WT SgrAI; wild type SgrAI dimer
stoichiometry N [1]: 4
